Source: patent US20140357577A1, “HIV Membrane Fusion Inhibitors” (priority 2011, published 2014)
Starred links: 1 amine or outer side, 2 acyl side, 3 side chain; linkers in the order of their positions; H or OH if unused. Positions of bridges follow the written chain, without caps; N, C: chain ends. Non-standard residues stand in square brackets, D forms with d. *: point of attachment. cholesteryl‑succinyl = CC(C)CCC[C@@H](C)[C@H]1CC[C@H]2[C@@H]3CC=C4C[C@@H](OC(=O)CCC(=O)*)CC[C@]4(C)[C@H]3CC[C@]12C; pXylylene = c1cc(C[*:2])ccc1C[*:1]; Suc = O=C(CCC(=O)[*:2])[*:1]

B1: peptide 71 (peptide)
peptide: Ac-ACYAACIEALIRKAQEQQEKNEAALR-NH2
modifications: linker 2-6 via pXylylene
SMILES: CC[C@H](C)[C@H](NC(=O)[C@@H]1CSCc2ccc(cc2)CSC[C@H](NC(=O)[C@H](C)NC(C)=O)C(=O)N[C@@H](Cc2ccc(O)cc2)C(=O)N[C@@H](C)C(=O)N[C@@H](C)C(=O)N1)C(=O)N[C@@H](CCC(=O)O)C(=O)N[C@@H](C)C(=O)N[C@@H](CC(C)C)C(=O)N[C@H](C(=O)N[C@@H](CCCNC(=N)N)C(=O)N[C@@H](CCCCN)C(=O)N[C@@H](C)C(=O)N[C@@H](CCC(N)=O)C(=O)N[C@@H](CCC(=O)O)C(=O)N[C@@H](CCC(N)=O)C(=O)N[C@@H](CCC(N)=O)C(=O)N[C@@H](CCC(=O)O)C(=O)N[C@@H](CCCCN)C(=O)N[C@@H](CC(N)=O)C(=O)N[C@@H](CCC(=O)O)C(=O)N[C@@H](C)C(=O)N[C@@H](C)C(=O)N[C@@H](CC(C)C)C(=O)N[C@@H](CCCNC(=N)N)C(N)=O)[C@@H](C)CC
B2: peptide 73 (peptide)
peptide: Ac-ACYAACIEALIRAAQEQQEKNEALLR-NH2
modifications: linker 2-6 via pXylylene
SMILES: CC[C@H](C)[C@H](NC(=O)[C@H](CC(C)C)NC(=O)[C@H](C)NC(=O)[C@H](CCC(=O)O)NC(=O)[C@@H](NC(=O)[C@@H]1CSCc2ccc(cc2)CSC[C@H](NC(=O)[C@H](C)NC(C)=O)C(=O)N[C@@H](Cc2ccc(O)cc2)C(=O)N[C@@H](C)C(=O)N[C@@H](C)C(=O)N1)[C@@H](C)CC)C(=O)N[C@@H](CCCNC(=N)N)C(=O)N[C@@H](C)C(=O)N[C@@H](C)C(=O)N[C@@H](CCC(N)=O)C(=O)N[C@@H](CCC(=O)O)C(=O)N[C@@H](CCC(N)=O)C(=O)N[C@@H](CCC(N)=O)C(=O)N[C@@H](CCC(=O)O)C(=O)N[C@@H](CCCCN)C(=O)N[C@@H](CC(N)=O)C(=O)N[C@@H](CCC(=O)O)C(=O)N[C@@H](C)C(=O)N[C@@H](CC(C)C)C(=O)N[C@@H](CC(C)C)C(=O)N[C@@H](CCCNC(=N)N)C(N)=O
B3: peptide 65 (peptide)
peptide: Ac-ACYAACIEALIRAAQEQQEKNEAALR-NH2
modifications: linker 2-6 via meta‑xylene
B4: peptide 75 (peptide)
peptide: Ac-[dA]CYAACIEALIRAAQEQQEKNEAAL[dR]-NH2
modifications: linker 2-6 via 2,7‑dimethylnaphthyl
B5: peptide 72 (peptide)
peptide: Ac-ACYAACIEELIRKAQEQQEKNEAALR-NH2
modifications: linker 2-6 via pXylylene
SMILES: CC[C@H](C)[C@H](NC(=O)[C@@H]1CSCc2ccc(cc2)CSC[C@H](NC(=O)[C@H](C)NC(C)=O)C(=O)N[C@@H](Cc2ccc(O)cc2)C(=O)N[C@@H](C)C(=O)N[C@@H](C)C(=O)N1)C(=O)N[C@@H](CCC(=O)O)C(=O)N[C@@H](CCC(=O)O)C(=O)N[C@@H](CC(C)C)C(=O)N[C@H](C(=O)N[C@@H](CCCNC(=N)N)C(=O)N[C@@H](CCCCN)C(=O)N[C@@H](C)C(=O)N[C@@H](CCC(N)=O)C(=O)N[C@@H](CCC(=O)O)C(=O)N[C@@H](CCC(N)=O)C(=O)N[C@@H](CCC(N)=O)C(=O)N[C@@H](CCC(=O)O)C(=O)N[C@@H](CCCCN)C(=O)N[C@@H](CC(N)=O)C(=O)N[C@@H](CCC(=O)O)C(=O)N[C@@H](C)C(=O)N[C@@H](C)C(=O)N[C@@H](CC(C)C)C(=O)N[C@@H](CCCNC(=N)N)C(N)=O)[C@@H](C)CC
B6: peptide 68 (peptide)
peptide: Ac-ACYAACIEALIRAAQEQQEKNEAALR-NH2
modifications: linker 2-6 via pXylylene
SMILES: CC[C@H](C)[C@H](NC(=O)[C@H](CC(C)C)NC(=O)[C@H](C)NC(=O)[C@H](CCC(=O)O)NC(=O)[C@@H](NC(=O)[C@@H]1CSCc2ccc(cc2)CSC[C@H](NC(=O)[C@H](C)NC(C)=O)C(=O)N[C@@H](Cc2ccc(O)cc2)C(=O)N[C@@H](C)C(=O)N[C@@H](C)C(=O)N1)[C@@H](C)CC)C(=O)N[C@@H](CCCNC(=N)N)C(=O)N[C@@H](C)C(=O)N[C@@H](C)C(=O)N[C@@H](CCC(N)=O)C(=O)N[C@@H](CCC(=O)O)C(=O)N[C@@H](CCC(N)=O)C(=O)N[C@@H](CCC(N)=O)C(=O)N[C@@H](CCC(=O)O)C(=O)N[C@@H](CCCCN)C(=O)N[C@@H](CC(N)=O)C(=O)N[C@@H](CCC(=O)O)C(=O)N[C@@H](C)C(=O)N[C@@H](C)C(=O)N[C@@H](CC(C)C)C(=O)N[C@@H](CCCNC(=N)N)C(N)=O
B7: peptide 74 (peptide)
peptide: Ac-ECYAACIEALIRAAQEQQEKNEAALR-NH2
modifications: linker 2-6 via pXylylene
SMILES: CC[C@H](C)[C@H](NC(=O)[C@H](CC(C)C)NC(=O)[C@H](C)NC(=O)[C@H](CCC(=O)O)NC(=O)[C@@H](NC(=O)[C@@H]1CSCc2ccc(cc2)CSC[C@H](NC(=O)[C@H](CCC(=O)O)NC(C)=O)C(=O)N[C@@H](Cc2ccc(O)cc2)C(=O)N[C@@H](C)C(=O)N[C@@H](C)C(=O)N1)[C@@H](C)CC)C(=O)N[C@@H](CCCNC(=N)N)C(=O)N[C@@H](C)C(=O)N[C@@H](C)C(=O)N[C@@H](CCC(N)=O)C(=O)N[C@@H](CCC(=O)O)C(=O)N[C@@H](CCC(N)=O)C(=O)N[C@@H](CCC(N)=O)C(=O)N[C@@H](CCC(=O)O)C(=O)N[C@@H](CCCCN)C(=O)N[C@@H](CC(N)=O)C(=O)N[C@@H](CCC(=O)O)C(=O)N[C@@H](C)C(=O)N[C@@H](C)C(=O)N[C@@H](CC(C)C)C(=O)N[C@@H](CCCNC(=N)N)C(N)=O
B8: peptide 67 (peptide)
peptide: Suc-ACYAACIEALIRAAQEQQEKNEAALR-NH2
modifications: linker 2-6 via pXylylene
SMILES: CC[C@H](C)[C@H](NC(=O)[C@H](CC(C)C)NC(=O)[C@H](C)NC(=O)[C@H](CCC(=O)O)NC(=O)[C@@H](NC(=O)[C@@H]1CSCc2ccc(cc2)CSC[C@H](NC(=O)[C@H](C)NC(=O)CCC(=O)O)C(=O)N[C@@H](Cc2ccc(O)cc2)C(=O)N[C@@H](C)C(=O)N[C@@H](C)C(=O)N1)[C@@H](C)CC)C(=O)N[C@@H](CCCNC(=N)N)C(=O)N[C@@H](C)C(=O)N[C@@H](C)C(=O)N[C@@H](CCC(N)=O)C(=O)N[C@@H](CCC(=O)O)C(=O)N[C@@H](CCC(N)=O)C(=O)N[C@@H](CCC(N)=O)C(=O)N[C@@H](CCC(=O)O)C(=O)N[C@@H](CCCCN)C(=O)N[C@@H](CC(N)=O)C(=O)N[C@@H](CCC(=O)O)C(=O)N[C@@H](C)C(=O)N[C@@H](C)C(=O)N[C@@H](CC(C)C)C(=O)N[C@@H](CCCNC(=N)N)C(N)=O
B9: peptide 70 (peptide)
peptide: Ac-ACYAACIDALIRAAQEQQEKNEAALR-NH2
modifications: linker 2-6 via pXylylene
SMILES: CC[C@H](C)[C@H](NC(=O)[C@H](CC(C)C)NC(=O)[C@H](C)NC(=O)[C@H](CC(=O)O)NC(=O)[C@@H](NC(=O)[C@@H]1CSCc2ccc(cc2)CSC[C@H](NC(=O)[C@H](C)NC(C)=O)C(=O)N[C@@H](Cc2ccc(O)cc2)C(=O)N[C@@H](C)C(=O)N[C@@H](C)C(=O)N1)[C@@H](C)CC)C(=O)N[C@@H](CCCNC(=N)N)C(=O)N[C@@H](C)C(=O)N[C@@H](C)C(=O)N[C@@H](CCC(N)=O)C(=O)N[C@@H](CCC(=O)O)C(=O)N[C@@H](CCC(N)=O)C(=O)N[C@@H](CCC(N)=O)C(=O)N[C@@H](CCC(=O)O)C(=O)N[C@@H](CCCCN)C(=O)N[C@@H](CC(N)=O)C(=O)N[C@@H](CCC(=O)O)C(=O)N[C@@H](C)C(=O)N[C@@H](C)C(=O)N[C@@H](CC(C)C)C(=O)N[C@@H](CCCNC(=N)N)C(N)=O
B10: peptide 69 (peptide)
peptide: Ac-ANYLALIEALIRAAQEQQEKNEAALRGSGK(cholesteryl‑succinyl)-NH2
SMILES: CC[C@H](C)[C@H](NC(=O)[C@H](CC(C)C)NC(=O)[C@H](C)NC(=O)[C@H](CCC(=O)O)NC(=O)[C@@H](NC(=O)[C@H](CC(C)C)NC(=O)[C@H](C)NC(=O)[C@H](CC(C)C)NC(=O)[C@H](Cc1ccc(O)cc1)NC(=O)[C@H](CC(N)=O)NC(=O)[C@H](C)NC(C)=O)[C@@H](C)CC)C(=O)N[C@@H](CCCNC(=N)N)C(=O)N[C@@H](C)C(=O)N[C@@H](C)C(=O)N[C@@H](CCC(N)=O)C(=O)N[C@@H](CCC(=O)O)C(=O)N[C@@H](CCC(N)=O)C(=O)N[C@@H](CCC(N)=O)C(=O)N[C@@H](CCC(=O)O)C(=O)N[C@@H](CCCCN)C(=O)N[C@@H](CC(N)=O)C(=O)N[C@@H](CCC(=O)O)C(=O)N[C@@H](C)C(=O)N[C@@H](C)C(=O)N[C@@H](CC(C)C)C(=O)N[C@@H](CCCNC(=N)N)C(=O)NCC(=O)N[C@@H](CO)C(=O)NCC(=O)N[C@@H](CCCCNC(=O)CCC(=O)O[C@H]1CC[C@@]2(C)C(=CC[C@H]3[C@@H]4CC[C@H]([C@H](C)CCCC(C)C)[C@@]4(C)CC[C@@H]32)C1)C(N)=O
B11: peptide 66 (peptide)
peptide: Ac-ACYAACIEALIRAAQEQQEKNEAALR-NH2
modifications: linker 2-6 via 2,7‑dimethylnaphthyl
B12: peptide 3 (peptide)
peptide: Suc-ANYAALIEALIRAAQEQQEKNEAALR-NH2
SMILES: CC[C@H](C)[C@H](NC(=O)[C@H](CC(C)C)NC(=O)[C@H](C)NC(=O)[C@H](CCC(=O)O)NC(=O)[C@@H](NC(=O)[C@H](CC(C)C)NC(=O)[C@H](C)NC(=O)[C@H](C)NC(=O)[C@H](Cc1ccc(O)cc1)NC(=O)[C@H](CC(N)=O)NC(=O)[C@H](C)NC(=O)CCC(=O)O)[C@@H](C)CC)C(=O)N[C@@H](CCCNC(=N)N)C(=O)N[C@@H](C)C(=O)N[C@@H](C)C(=O)N[C@@H](CCC(N)=O)C(=O)N[C@@H](CCC(=O)O)C(=O)N[C@@H](CCC(N)=O)C(=O)N[C@@H](CCC(N)=O)C(=O)N[C@@H](CCC(=O)O)C(=O)N[C@@H](CCCCN)C(=O)N[C@@H](CC(N)=O)C(=O)N[C@@H](CCC(=O)O)C(=O)N[C@@H](C)C(=O)N[C@@H](C)C(=O)N[C@@H](CC(C)C)C(=O)N[C@@H](CCCNC(=N)N)C(N)=O

Target: gp41 of HIV-1 strain HXB2D with mutation V38A (HIV-1 strain HXB2D, UniProt P04578)
Experiment: cell-based or functional assay

Binder | fold change in EC50, HIV-HXB2D V38A mutant [fold]
B1 | 11
B2 | 60
B3 | 16
B4 | 21
B5 | 10
B6 | 21
B7 | 33
B8 | 30
B9 | 11
B10 | 1
B11 | 66
B12 | 74
